Article PMC9977175 (Science Advances, 2023)

B1: Trx-tagged ATG16L1(78 to 206) (domain or fragment, human, UniProt Q676U5 78-206, looked up)
chain: NDNQLQEMAQLRIKHQEELTELHKKRGELAQLVIDLNNQMQRKDREMQMNEAKIAECLQTISDLETECLDLRTKLCDLERANQTLKDEYDALQITFTALEGKLRKTTEENQELVTRWMAEKAQEANRLN
B2: ATG16L1(124 to 247) (domain or fragment, human, UniProt Q676U5 124-247, looked up)
chain: MQMNEAKIAECLQTISDLETECLDLRTKLCDLERANQTLKDEYDALQITFTALEGKLRKTTEENQELVTRWMAEKAQEANRLNAENEKDSRRRQARLQKELAEAAKEPLPVEQDDDIEVIVDET
B3: Trx-ATG16L1(78 to 197) (domain or fragment, human, UniProt Q676U5 78-197, looked up)
chain: NDNQLQEMAQLRIKHQEELTELHKKRGELAQLVIDLNNQMQRKDREMQMNEAKIAECLQTISDLETECLDLRTKLCDLERANQTLKDEYDALQITFTALEGKLRKTTEENQELVTRWMAE
B4: Trx-tagged ATG16L1(78 to 247) (domain or fragment, human, UniProt Q676U5 78-247, looked up)
chain: NDNQLQEMAQLRIKHQEELTELHKKRGELAQLVIDLNNQMQRKDREMQMNEAKIAECLQTISDLETECLDLRTKLCDLERANQTLKDEYDALQITFTALEGKLRKTTEENQELVTRWMAEKAQEANRLNAENEKDSRRRQARLQKELAEAAKEPLPVEQDDDIEVIVDET

Biological target: the molecule itself
Experiment: SEC-MALS

Stoichiometry N, 2:
B1
B2
B3
B4
